One data set has as its target T1, SALDan E175A (Alteromonas naphthalenivorans, UniProt F5Z5S7, E175A).
T1 sequence (F5Z5S7 1-483 E175A): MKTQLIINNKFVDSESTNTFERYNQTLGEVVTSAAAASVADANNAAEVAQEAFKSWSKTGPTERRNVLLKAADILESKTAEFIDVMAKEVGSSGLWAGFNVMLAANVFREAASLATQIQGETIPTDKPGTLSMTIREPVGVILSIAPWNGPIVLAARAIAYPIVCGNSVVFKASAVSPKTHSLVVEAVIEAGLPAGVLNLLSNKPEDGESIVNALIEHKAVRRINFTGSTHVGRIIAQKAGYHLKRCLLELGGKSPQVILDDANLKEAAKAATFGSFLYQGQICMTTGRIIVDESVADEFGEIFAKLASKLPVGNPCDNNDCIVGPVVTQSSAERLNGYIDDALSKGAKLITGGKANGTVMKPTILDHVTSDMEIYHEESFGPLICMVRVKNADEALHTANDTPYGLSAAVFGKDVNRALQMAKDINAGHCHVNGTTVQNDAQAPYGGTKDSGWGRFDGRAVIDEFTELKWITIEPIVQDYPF
As to the kind of experiment: Kinetics assay of SALDan mutant E175A. The format is biochemical. An excerpt: (§1) The primers used for the single amino acid mutant were as follows: N149A, forward primer, 5′-ATAGCACCGTGGGCCGGGCCTATTGTATTA-3′; reverse primer, 5′-TAATACAATAGGCCCGGCCCACGGTGCTAT-3′; V153A, forward primer, 5′-AATGGGCCTATTGTATTAGCGGCTCGG-3′; reverse primer, 5′-CCGAGCCGCTAATACAATAGGCCCATT-3′; E175A, forward primer, 5′-[…]-3′, reverse primer, 5′-GTTGGGACAGTCTTCCAGCCC-3′; E175A, forward primer, 5′-ATGCTCCACCAAATTGGGCAC-3′; reverse primer, 5′-TTTAGGACTTACTTCTGAAGCTTTAAA-3′. The PCR was performed using Pfu polymerase, and the cycling parameters were: 95 °C for 5 min (one cycle), 95 °C for 30 s, and 68 °C for 12 min (12 cycles). After amplification, the PCR mixture was digested with DpnI and then transformed into E. coli BL21(DE3) by electroporation. The mutants were confirmed by DNA sequencing.
(§2) The activity of the purified proteins was determined using SAL as a substrate. A reaction volume of 500 μL was prepared in a microfuge tube containing purified SALDan (0.1 μM), SAL (100 μM), and NAD^+ (100 μM) dissolved in 50 mM HEPES (pH 7.5) containing 150 mM NaCl. The SALDan activity was monitored as the rate of appearance of NADH at 340 nm spectrophotometrically. The specific activity of the enzyme (units.mg^−1.min^−1) was expressed as the amount of enzyme required to produce 1 μM of NADH under the assay conditions. The influence of pH on the activity was determined using the protocol described above, with the exception of replacing the […] buffer with 50 mM sodium acetate (pH 3.0–5.0), 50 mM 2-(N-morpholino)ethanesulfonic acid (pH 5.0–7.5), 50 mM HEPES (pH 8.0–8.5), 50 mM glycine (pH 9.0–10.0), or 50 mM sodium phosphate (pH 11.0)[52]. All assays were performed at the optimal temperature. To determine the influence of temperature on the enzymatic activity, the reactions were performed at 15, 20, 25, 30, 35, 40, and 45 °C, respectively.
(§3) For kinetic studies of aldehydes, the initial velocities of the enzymatic reactions were examined by varying the concentrations of various aromatic as well as aliphatic aldehydes in the presence of NAD^+ (100 μM) and the enzyme (0.1 μM) under optimal conditions. For substrates that absorb at 340 nm, thus interfering with the calculation of the initial rate, their molar coefficients (ε) were calculated as described previously[64] and are presented in Table S1. The apparent kinetic parameters were calculated using the equation: […]
(§4) The apparent kinetic parameters for NAD^+ were determined at a fixed concentration of SAL (50 μM) and a varying concentration of NAD^+ (0–500 μM). The apparent Km and Vmax values were calculated by using the equation: […]
(§5) All the activity data were determined by three separate experiments with at least three technical replicates.

In another data set the target is T2, SALDan N149A (Alteromonas naphthalenivorans, UniProt F5Z5S7, N149A).
T2 sequence (F5Z5S7 1-483 N149A): T1 sequence (F5Z5S7 1-483 E175A) with N149A, A175E
As to the kind of experiment: Kinetics assay of SALDan mutant N149A. The data set is classed as biochemical.
Source text: as §1, with “After amplification, the PCR mixture was digested with DpnI and then transformed into E. coli BL21(DE3) by electroporation. The mutants were confirmed by DNA sequencing.” left out
(§6) The activity of the purified proteins was determined using SAL as a substrate. […] The SALDan activity was monitored as the rate of appearance of NADH at 340 nm spectrophotometrically. The specific activity of the enzyme (units.mg^−1.min^−1) was expressed as the amount of enzyme required to produce 1 μM of NADH under the assay conditions. The influence of pH on the activity was determined using the protocol described above, with the exception of replacing the Tris-HCl buffer with 50 mM sodium acetate (pH 3.0–5.0), 50 mM 2-(N-morpholino)ethanesulfonic acid (pH 5.0–7.5), 50 mM HEPES (pH 8.0–8.5), 50 mM glycine (pH 9.0–10.0), or 50 mM sodium phosphate (pH 11.0)[52]. […]

A further data set addresses T3, SALDan V153A (Alteromonas naphthalenivorans, UniProt F5Z5S7, V153A).
T3 sequence (F5Z5S7 1-483 V153A): T1 sequence (F5Z5S7 1-483 E175A) with V153A, A175E
As to the kind of experiment: Kinetics assay of SALDan mutant V153A. The data set is classed as biochemical.
Source text: as §1, §6, §3

The next data set has as its target SALDan (Alteromonas naphthalenivorans, UniProt F5Z5S7). As to the kind of experiment: Kinetics assay of wild-type recombinant SALDan (NADH appearance at 340 nm). The format is biochemical. On the procedure:
as §2, §3, §4, §5

Data set [1] concerns the molecule itself. The data set is described as follows: SEC; purified SALDan on a Superdex 200 10/300 GL column, against standards ferritin, catalase, alcohol dehydrogenase, albumin, ovalbumin; one peak at approximately 160 kDa (monomer approximately 53 kDa). A general note: In gel filtration, larger molecules generally elute earlier.
Substrate in data set [2]: O=Cc1cccc(Cl)c1
As to the kind of experiment: purified protein, by the assay type. Particulars: other: wild-type; aldehyde varied at NAD^+ 100 μM, enzyme 0.1 μM; for NAD^+: SAL fixed 50 μM, NAD^+ 0–500 μM; 45.0 °C.

Substrate in data set [3]: O=Cc1ccc([N+](=O)[O-])cc1
As to the kind of experiment: purified protein, by the assay type. To be noted: other: wild-type; aldehyde varied at NAD^+ 100 μM, enzyme 0.1 μM; for NAD^+: SAL fixed 50 μM, NAD^+ 0–500 μM; 45.0 °C.

Substrate in data set [4]: O=Cc1ccc(Cl)cc1
The data set is described as follows: purified protein, by the assay type. Particulars: other: wild-type; aldehyde varied at NAD^+ 100 μM, enzyme 0.1 μM; for NAD^+: SAL fixed 50 μM, NAD^+ 0–500 μM; 45.0 °C.

Substrate in data set [5]: O=Cc1ccccc1O
As to the kind of experiment: Kinetics assay of wild-type recombinant SALDan (NADH appearance at 340 nm). The data set is classed as biochemical, Alteromonas naphthalenivorans. To be noted: other: wild-type; aldehyde varied at NAD^+ 100 μM, enzyme 0.1 μM; for NAD^+: SAL fixed 50 μM, NAD^+ 0–500 μM; 45.0 °C.

Substrate in data set [6]: O=CCCCC=O
The data set is described as above. The format is biochemical, Alteromonas naphthalenivorans. Particulars: other: wild-type; aldehyde varied at NAD^+ 100 μM, enzyme 0.1 μM; for NAD^+: SAL fixed 50 μM, NAD^+ 0–500 μM; 45.0 °C.

Substrate in data set [7]: O=Cc1ccc2ccccc2c1
Described as above. The format is biochemical, Alteromonas naphthalenivorans. Particulars: other: wild-type; aldehyde varied at NAD^+ 100 μM, enzyme 0.1 μM; for NAD^+: SAL fixed 50 μM, NAD^+ 0–500 μM; 45.0 °C.

Substrate in data set [8]: NC(=O)c1ccc[n+]([C@@H]2O[C@H](COP(=O)([O-])OP(=O)(O)OC[C@H]3O[C@@H](n4cnc5c(N)ncnc54)[C@H](O)[C@@H]3O)[C@@H](O)[C@H]2O)c1
The description is as above. The format is biochemical, Alteromonas naphthalenivorans. To be noted: other: wild-type; aldehyde varied at NAD^+ 100 μM, enzyme 0.1 μM; for NAD^+: SAL fixed 50 μM, NAD^+ 0–500 μM; 45.0 °C.

Substrate in data set [9]: O=Cc1ccccc1Cl
The data set is described as above. The format is biochemical, Alteromonas naphthalenivorans. Particulars: other: wild-type; aldehyde varied at NAD^+ 100 μM, enzyme 0.1 μM; for NAD^+: SAL fixed 50 μM, NAD^+ 0–500 μM; 45.0 °C.

Data set [10] concerns the molecule itself. The data set is described as follows: cross-linking; purified SALDan (0.5 mg/ml) with 0.1% aldehyde for various periods at 25 °C, quenched with 1 M Tris-HCl, SDS-PAGE and Coomassie staining.

A word on the Ki: it is the equilibrium dissociation constant of an inhibitor or competing ligand from its target. The term stoichiometry N denotes a count of units in the complex or per binding partner. By Km is commonly meant the concentration of substrate that gives half-maximal velocity. A word on the Vmax: it is the top rate of the reaction or transport when substrate is in excess. As a reminder, the kcat is the number of substrate molecules converted per active site and unit of time at saturation. By kcat/Km is commonly meant the second-order rate constant that governs catalysis at low substrate concentration.

Changes are numbered by the printed parent chain.

Chain of SALDan (F5Z5S7 entry or part of it): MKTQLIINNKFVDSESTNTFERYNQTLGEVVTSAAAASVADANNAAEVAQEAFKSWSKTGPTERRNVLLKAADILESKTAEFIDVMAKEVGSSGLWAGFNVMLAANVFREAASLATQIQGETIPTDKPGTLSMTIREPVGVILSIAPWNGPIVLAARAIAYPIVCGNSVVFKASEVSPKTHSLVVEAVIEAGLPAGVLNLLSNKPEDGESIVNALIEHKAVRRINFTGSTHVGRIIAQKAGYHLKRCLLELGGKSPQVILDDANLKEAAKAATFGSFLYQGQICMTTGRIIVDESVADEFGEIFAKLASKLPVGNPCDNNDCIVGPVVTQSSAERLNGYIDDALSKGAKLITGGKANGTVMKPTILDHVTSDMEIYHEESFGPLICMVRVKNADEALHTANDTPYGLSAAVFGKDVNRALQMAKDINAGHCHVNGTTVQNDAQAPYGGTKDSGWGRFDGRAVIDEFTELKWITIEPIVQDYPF

Take `O=Cc1ccccc1O` [Salicylaldehyde]: the Ki at SALDan E175A was 462 ± 51.4 µM; at SALDan N149A it was 447 ± 52.6 µM; on SALDan V153A it was 428 ± 49.4 µM; on SALDan it was 379 ± 45.2 µM. For the same molecule, the “change of apparent Km value” at SALDan E175A (E175A mutant versus wild-type) was “increased”. The “change of kcat/Km (catalytic efficiency)” value at SALDan E175A (E175A mutant versus wild-type) is recorded as “decreased by six times”. In addition, the “change of catalytic efficiency compared with the wild-type protein” value on SALDan N149A (N149A mutant) is reported as “decreased by about three times”. The “effect on the kinetic parameters” value on SALDan V153A (V153A mutant versus wild-type) is recorded as “no significant effect”. Besides, the “activity relative to the maximal velocity” value at SALDan (wild-type, assayed at 200 μM substrate, substrate inhibition) is reported as “approximately 80%”. The “substrate concentration at which the highest velocity is achieved” value at SALDan (wild-type, velocity versus substrate plot) turned out to be 40 µM.

B1: Salicylaldehyde dehydrogenase from Alteromonas naphthalenivorans (SALDan) (enzyme, UniProt F5Z5S7 1-483, looked up)
chain: T1 sequence (F5Z5S7 1-483 E175A) with A175E
notes: Salicylaldehyde dehydrogenase (EC 1.2.1.65) of Alteromonas naphthalenivorans, UniProt F5Z5S7; amplified from genomic DNA with primers from the ATG start codon to the stop codon; about 53 kDa on SDS-PAGE; Cloned between BamHI and HindIII of pET28a; also called SAL dehydrogenase; WT; source: E. coli BL21 (DE3), pET28a, purified (Ni-NTA column)
For the molecule B1, the “stoichiometry N” value in data set [1] was 3 subunits; in data set [10], 3. Further, the Km worked out at 4.8 ± 0.7 µM in data set [2]; 6.5 ± 0.9 µM in data set [3]; 5.5 ± 1.1 µM in [4]; 3.8 ± 0.5 µM in data set [5]; 560 ± 46.0 µM in data set [6]; 3.4 ± 0.5 µM in [7]. The Km was found to be 39.5 ± 3.2 µM in data set [8] and 3.2 ± 0.3 µM in data set [9]. Moreover, the maximal velocity (Vmax) in data set [2] amounted to 56.8 µmol/min/mg; in data set [3], 32.3 µmol/min/mg; in data set [4] it was 74.2 µmol/min/mg; in data set [5] it was 49.5 µmol/min/mg; in data set [6], 11.6 µmol/min/mg; in data set [7], 61.4 µmol/min/mg. Further, the Vmax is 94.1 µmol/min/mg in data set [8] and 45.6 µmol/min/mg in data set [9]. Moreover, the kcat in data set [2] was 142 s⁻¹; in data set [3] it was 80.2 s⁻¹; in data set [4], 186 s⁻¹; in [5], 124 ± 13.6 s⁻¹; in data set [6], 29.6 ± 3.7 s⁻¹; in [7] it was 153 ± 14.4 s⁻¹. Also, the kcat in [8] was 234 ± 24.2 s⁻¹; in data set [9] it was 114 ± 17.2 s⁻¹. Also, the kcat/Km worked out at 2.96e+07 M⁻¹ s⁻¹ in [2]; 1.23e+07 M⁻¹ s⁻¹ in data set [3]; 3.37e+07 M⁻¹ s⁻¹ in [4]; 3.25e+07 ± 4.2e+06 M⁻¹ s⁻¹ in data set [5]; 53000 M⁻¹ s⁻¹ in [6]; 4.5e+07 ± 4.4e+06 M⁻¹ s⁻¹ in data set [7]. For the same molecule, the values for the kcat/Km in data set [8] and in [9] were 5.9e+06 ± 500000 M⁻¹ s⁻¹ and 3.57e+07 ± 4.5e+06 M⁻¹ s⁻¹, respectively.

These data come from publication PMC5324060, “Evolutionary, computational, and biochemical studies of the salicylaldehyde dehydrogenases in the naphthalene degradation pathway” (Scientific Reports, 2017).
